Residue numbers refer to the chain shown, from its start.
B1: Humabody VH 1.90 (VHH)
VHH: EVQLVESGGGLVQPGGSLRLSCAASGFTFSSHWMTWVRQAPGKGLEWVAHIKEDGSEKYYEDSVEGRFTVSRDNAKNSVYLQMNSLRAEDTAVYYCARGGDGYSDSHFGVDVWGQGTTVTVSS
notes: human single VH domain
B2: Humabody VH 1.91 (VHH)
VHH: B1 VHH with V37F, E61V, E65K
notes: human single VH domain
B3: Humabody VH 1.92 (VHH)
VHH: B1 VHH with V37F, E65K
notes: human single VH domain
B4: Humabody VH 1.93 (VHH)
VHH: B1 VHH with V37F, V70I
notes: human single VH domain
B5: Humabody VH 1.94 (VHH)
VHH: B1 VHH with V37F, V79L
notes: human single VH domain
B6: Humabody VH 1.95 (VHH)
VHH: B1 VHH with E61V, E65K, V70I, V79L
notes: human single VH domain
B7: Humabody VH 1.96 (VHH)
VHH: B1 VHH with V37F, E61V, E65K, V70I, V79L
notes: human single VH domain
B8: Humabody VH 1.97 (VHH)
VHH: B1 VHH with G55E, E61V, E65K, V70I, V79L, D101V, D105I
notes: human single VH domain
B9: Humabody VH 1.98 (VHH)
VHH: B1 VHH with G55E, E61V, E65K, V70I, V79L, D101E, D105I
notes: human single VH domain
B10: Humabody VH 1.99 (VHH)
VHH: B1 VHH with V37F, G55E, E61V, E65K, V70I, V79L
notes: human single VH domain
B11: Humabody VH 1.100 (VHH)
VHH: B1 VHH with V37F, G55E, E61V, E65K, V70I, V79L, D105I
notes: human single VH domain
B12: Humabody VH 1.101 (VHH)
VHH: B1 VHH with V37F, D54G, E61V, E65K, V70I, V79L
notes: human single VH domain
B13: Humabody VH 1.102 (VHH)
VHH: B1 VHH with V37F, D54E, E61V, E65K, V70I, V79L
notes: human single VH domain
B14: Humabody VH 1.103 (VHH)
VHH: B1 VHH with V37F, E61V, E65K, V70I, V79L, D101E
notes: human single VH domain
B15: Humabody VH 1.104 (VHH)
VHH: B1 VHH with V37F, E61V, E65K, V70I, V79L, D101V
notes: human single VH domain
B16: Humabody VH 1.105 (VHH)
VHH: B1 VHH with V37F, G55E, E61V, E65K, V70I, V79L, D101V, D105I
notes: human single VH domain
B17: Humabody VH 1.106 (VHH)
VHH: B1 VHH with V37F, G55E, E61V, E65K, V70I, V79L, D101E, D105I
notes: human single VH domain
B18: Humabody VH 2.41 (VHH)
VHH: EVQLVESGGGLVKPGGSLRLSCAASGFTFSDYYMSWFRQAPGKGLEWVSYISGSGDIIDYADSVKGRFTISRDNAKNSLYLQMNNLRAEDTAVYHCAREDSRLTGTTDFDNWGQGTLVTVSS
notes: human single VH domain
B19: Humabody VH 2.42 (VHH)
VHH: B18 VHH with L20V, F37I
notes: human single VH domain
B20: Humabody VH 2.45 (VHH)
VHH: B18 VHH with H95Y
notes: human single VH domain
B21: Humabody VH 2.46 (VHH)
VHH: B18 VHH with F37I, N85S, H95Y
notes: human single VH domain
B22: Humabody VH 2.47 (VHH)
VHH: B18 VHH with N85S, H95Y
notes: human single VH domain
B23: Humabody VH 2.48 (VHH)
VHH: B18 VHH with F37I, N85S, H95Y, S101A
notes: human single VH domain
B24: Humabody VH 2.49 (VHH)
VHH: B18 VHH with F37I, N85S, H95Y, S101P
notes: human single VH domain
B25: Humabody VH 2.50 (VHH)
VHH: B18 VHH with N85S, H95Y, S101A
notes: human single VH domain
B26: Humabody VH 2.51 (VHH)
VHH: B18 VHH with N85S, H95Y, S101P
notes: human single VH domain
B27: Humabody VH 1.107 (VHH)
VHH: EVQLVESGGGLVQPGGSLRLSCAASGFTLSNYWMNWVRQAPGKGLEWVANINQDGSERYYVDSVKGRFTISRDNAKNSLYLQMSSLRAEDTAVYFCARGGEGYGVDHYGLDVSGQGTTVTVSS
notes: human single VH domain
B28: Humabody VH 1.108 (VHH)
VHH: B27 VHH with S25T, S84N
notes: human single VH domain
B29: Humabody VH 1.109 (VHH)
VHH: B27 VHH with S25T, F95Y
notes: human single VH domain
B30: Humabody VH 1.110 (VHH)
VHH: B27 VHH with S84N
notes: human single VH domain
B31: Humabody VH 1.111 (VHH)
VHH: B27 VHH with F95Y
notes: human single VH domain
B32: Humabody VH 1.112 (VHH)
VHH: B27 VHH with S25T, S84N, F95Y
notes: human single VH domain
B33: Humabody VH 1.114 (VHH)
VHH: B27 VHH with G55E, S84N, F95Y
notes: human single VH domain
B34: 1.1-6GS-1.1 (VHH)
chain: EVQLVESGGGLVQPGGSLRLSCAASGFTFSSHWMTWFRQAPGKGLEWVAHIKEDGSEKYYEDSVEGRFTVSRDNAKNSVYLQMNSLRAEDTAVYYCARGGDGYSDSHFGVDVWGQGTTVTVSSGGGGSGGGGSGGGGSGGGGSGGGGSGGGGSEVQLVESGGGLVQPGGSLRLSCAASGFTFSSHWMTWFRQAPGKGLEWVAHIKEDGSEKYYEDSVEGRFTVSRDNAKNSVYLQMNSLRAEDTAVYYCARGGDGYSDSHFGVDVWGQGTTVTVSS
notes: bivalent tandem VH, monospecific for CD137; also called bivalent Humabody VH 1.1; not shown: His tag
B35: 2.1-6GS-2.1 (VHH)
chain: EVQLVESGGGLVKPGGSLRVSCAASGFTFSDYYMSWFRQAPGKGLEWVSYISGSGDIIDYADSVKGRFTISRDNAKNSLYLQMNNLRAEDTAVYHCAREDSRLTGTTDFDNWGQGTLVTVSSGGGGSGGGGSGGGGSGGGGSGGGGSGGGGSEVQLVESGGGLVKPGGSLRVSCAASGFTFSDYYMSWFRQAPGKGLEWVSYISGSGDIIDYADSVKGRFTISRDNAKNSLYLQMNNLRAEDTAVYHCAREDSRLTGTTDFDNWGQGTLVTVSS
notes: bivalent tandem VH, monospecific for CD137; also called bivalent Humabody VH 2.1; not shown: His tag
B36: 1.1-6GS-1.1-6GS-1.1 (VHH)
chain: EVQLVESGGGLVQPGGSLRLSCAASGFTFSSHWMTWFRQAPGKGLEWVAHIKEDGSEKYYEDSVEGRFTVSRDNAKNSVYLQMNSLRAEDTAVYYCARGGDGYSDSHFGVDVWGQGTTVTVSSGGGGSGGGGSGGGGSGGGGSGGGGSGGGGSEVQLVESGGGLVQPGGSLRLSCAASGFTFSSHWMTWFRQAPGKGLEWVAHIKEDGSEKYYEDSVEGRFTVSRDNAKNSVYLQMNSLRAEDTAVYYCARGGDGYSDSHFGVDVWGQGTTVTVSSGGGGSGGGGSGGGGSGGGGSGGGGSGGGGSEVQLVESGGGLVQPGGSLRLSCAASGFTFSSHWMTWFRQAPGKGLEWVAHIKEDGSEKYYEDSVEGRFTVSRDNAKNSVYLQMNSLRAEDTAVYYCARGGDGYSDSHFGVDVWGQGTTVTVSS
notes: trivalent tandem VH, monospecific for CD137; also called trivalent Humabody VH 1.1; not shown: His tag
B37: 2.1-6GS-2.1-6GS-2.1 (VHH)
chain: EVQLVESGGGLVKPGGSLRVSCAASGFTFSDYYMSWFRQAPGKGLEWVSYISGSGDIIDYADSVKGRFTISRDNAKNSLYLQMNNLRAEDTAVYHCAREDSRLTGTTDFDNWGQGTLVTVSSGGGGSGGGGSGGGGSGGGGSGGGGSGGGGSEVQLVESGGGLVKPGGSLRVSCAASGFTFSDYYMSWFRQAPGKGLEWVSYISGSGDIIDYADSVKGRFTISRDNAKNSLYLQMNNLRAEDTAVYHCAREDSRLTGTTDFDNWGQGTLVTVSSGGGGSGGGGSGGGGSGGGGSGGGGSGGGGSEVQLVESGGGLVKPGGSLRVSCAASGFTFSDYYMSWFRQAPGKGLEWVSYISGSGDIIDYADSVKGRFTISRDNAKNSLYLQMNNLRAEDTAVYHCAREDSRLTGTTDFDNWGQGTLVTVSS
notes: trivalent tandem VH, monospecific for CD137; also called trivalent Humabody VH 2.1; not shown: His tag
B38: 4.1-6GS-1.78 (bispecific antibody)
chain: EVQLVESGGGVVQPGRSLRLSCAASGFSFSGYGMHWVRQAPGKGLEWVAYISYDGSNKYYADSVKGRFTISRDNSKNTLYLQMNSLRAEDTAVYYCAKDPAWGLRLGESSSYDFDIWGQGTMVTVSSGGGGSGGGGSGGGGSGGGGSGGGGSGGGGSQVQLVESGGGLVQPGGSLRLSCAATGFTLSNYWMNWVRQAPGKGLEWVANINQDGSERYYVDSVKGRFTISRDNAKNSLYLQMSSLRAEDTAVYFCARGGEGYGVDHYGLDVSGQGTTVTVSS
notes: built from its printed name (4.1, 6GS linker, 1.78); not shown: His tag
B39: 1.78-6GS-4.1 (bispecific antibody)
chain: QVQLVESGGGLVQPGGSLRLSCAATGFTLSNYWMNWVRQAPGKGLEWVANINQDGSERYYVDSVKGRFTISRDNAKNSLYLQMSSLRAEDTAVYFCARGGEGYGVDHYGLDVSGQGTTVTVSSGGGGSGGGGSGGGGSGGGGSGGGGSGGGGSEVQLVESGGGVVQPGRSLRLSCAASGFSFSGYGMHWVRQAPGKGLEWVAYISYDGSNKYYADSVKGRFTISRDNSKNTLYLQMNSLRAEDTAVYYCAKDPAWGLRLGESSSYDFDIWGQGTMVTVSS
notes: built from its printed name (1.78, 6GS linker, 4.1); not shown: His tag

Biological target: T1, human CD137 expressed on the surface of CHO cells (human, UniProt Q07011 24-255)
T1 construct: Also used for the Jurkat reporter cells that express human CD137 (functional rows); also called CHO human CD137 cells; CHO huCD137
Test: FMAT ligand inhibition, CD137 Ligand on CHO human CD137 cells
Method: In parallel to the binding assay, periplasmic extracts were tested for their ability to inhibit the interaction of human CD137 ligand protein with CHO human CD137 cells in an FMAT format. Total binding controls containing diluted periplasmic extract sample buffer and non-specific binding controls containing excess non-Fc tagged competitor were set up on each plate for data normalisation. Fluorescence signal was measured using the TTP Mirrorball and the FL2 median mean fluorescence intensity of gated used for the data normalisation. The data was expressed as a % of the total binding control (% control) after subtraction of the background signal determined from the non-specific binding control wells.
The ability of purified Humabody VH to inhibit the binding of CD137 Ligand to CHO human CD137 cells was measured in the FMAT ligand inhibition assay essentially as described in Example 6. VH inhibited the binding of human CD137 Ligand to human CD137.

T1 sequence (Q07011 24-255 limits assumed): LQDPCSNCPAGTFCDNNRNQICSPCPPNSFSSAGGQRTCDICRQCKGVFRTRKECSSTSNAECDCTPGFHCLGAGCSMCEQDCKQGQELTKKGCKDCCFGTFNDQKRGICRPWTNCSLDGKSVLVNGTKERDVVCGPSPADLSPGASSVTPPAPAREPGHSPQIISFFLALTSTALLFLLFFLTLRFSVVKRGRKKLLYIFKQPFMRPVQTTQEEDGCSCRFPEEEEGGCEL

Binder	IC50 [nM]
B1	7.8
B2	1.9
B3	2.9
B4	0.7
B5	0.8
B6	24
B7	2.7
B8	3.8
B9	4.7
B10	1.5
B11	1.4
B12	7.9
B13	1.7
B14	1.3
B15	1.1
B16	2.8
B17	2.1
B18	16
B19	200
B20	5.3

Binder	IC50 [nM]
B21	78
B22	8.8
B23	86
B24	42
B25	14
B26	27
B27	0.55
B28	0.5
B29	0.9
B30	0.81
B31	0.75
B32	0.47
B33	0.27
B34	0.28
B35	0.43
B36	0.2
B37	0.42
B38	3.7
B39	2.8

From patent publication US20200362047A1 (CRESCENDO BIOLOGICS, published 2020)
